In the RNAGym collection of RNA variant scans (doi:10.1093/molbev/msab373):

B1: Azoarcus group I ribozyme (parent)
chain: GUGCCUUGCGCCGGGAAACCACGCAAGGGAUGGUGUCAAAUUCGGCGAAACCUAAGCGCCCGCCCGGGCGUAUGGCAACGCCGAGCCAAGCUUCGGCGCCUGCGCCGAUGAAGGUGUAGAGACUAGACGGCACCCACCUAAGGCAAACGCUAUGGUGAAGGCAUAGUCCAGGGAGUGGCGAAAGUCACACAAACCGG

Variants of: B1
Assay: reverse-splicing fitness (ratio to wild type); higher = more active; in vitro selection; Mg2+ level not given
Summary of the method: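 An in vitro group I ribozyme library with randomized positions was T7-transcribed and gel-purified. In triplicate, 10 pmol RNA in EPPS pH 7.5 was reacted with 50 pmoles of a 30-nt RNA substrate for 1 h at 37 °C across several added MgCl2 levels (1–48 mM), then stopped with EDTA. Products were reverse transcribed from a substrate-complementary primer, PCR-amplified and sequenced (HiSeq 4000). Fitness is a variant's read proportion after selection over that before, normalised to wild type.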

Row | Variant | reverse-splicing fitness
1 | A111C A120G A145G C150U C169U U176G | 0.00498
2 | A111C A120G A145G C150U C169U U176A | 0.0338
3 | A111C A120C C150G U176A | 0.0144
4 | A111C A120C C150G U176G | 0.00388
5 | A111C A120C C150G U176C | 0.0288
6 | A111C A120C U176C | 0.204
7 | A111C A120C U176G | 0.0393
8 | A111C A120C U176A | 0.186
9 | A111C A120C C169U U176G | 0.0068
10 | A111C A120C C169U U176C | 0.0446
11 | A111C A120C C169U U176A | 0.031
12 | A111C A120G A145G C150G C169U | 0.0264
13 | A111C A120G A145G C150G C169G | 0.0248
14 | A111C A120G A145G C150G C169A | 0.0166
15 | A111C A120G A145G C150A C169A U176G | 0.0058
16 | A111C A120G A145G C150A C169A U176A | 0.0174
17 | A111C A120G A145G C150A C169A U176C | 0.022
18 | A111C A120C C150U U176C | 0.153
19 | A111C A120C C150U U176G | 0.0275
20 | A111C A120C C150U U176A | 0.128
21 | A111C A120C A145G C150U U176A | 0.159

Row | Variant | reverse-splicing fitness
22 | A111C A120C A145G C150U U176G | 0.0297
23 | A111C A120C A145G C150U U176C | 0.18
24 | A111C A120G A145U C150A C169G U176A | 0.0123
25 | A111C A120C A145U C150A C169U U176C | 0.0144
26 | A111C A120C A145U C150A C169U U176A | 0.0195
27 | A111C A120C A145U C150A C169U U176G | 0.00632
28 | A111C A120G A145C C150G U176A | 0.0112
29 | A111C A120G A145C C150G U176G | 0.00301
30 | A111C A120G A145C C150G U176C | 0.0168
31 | A111C A120G A145C C150A | 0.0117
32 | A111C A120G A145C C150G | 0.0219
33 | A111C A120G A145C C150U | 0.0418
34 | A111C A120C A145G C150A C169U | 0.0324
35 | A111C A120C A145G C150A C169A | 0.0101
36 | A111C A120C A145G C150A C169G | 0.00782
37 | A111C A120C A145G C150A U176A | 0.0428
38 | A111C A120C A145G C150A U176G | 0.0143
39 | A111C A120C A145G C150A U176C | 0.0663
40 | A111C A120G A145G U176C | 0.0456
41 | A111C A120G A145G U176A | 0.0379
42 | A111C A120G A145G U176G | 0.00588

Row | Variant | reverse-splicing fitness
43 | A111C A120C A145U C150G C169U | 0.0234
44 | A111C A120C A145U C150G C169A | 0.00797
45 | A111C A120C A145U C150G C169G | 0.00671
46 | A111C A120G A145G C169G U176A | 0.036
47 | A111C A120G A145G C169G U176G | 0.00512
48 | A111C A120G A145G C169G U176C | 0.0552
49 | A111C A120C A145G C150G C169U U176A | 0.0114
50 | A111C A120C A145G C150G C169U U176G | 0.0071
51 | A111C A120C A145G C150G C169U U176C | 0.0128
52 | A111C A120C A145G C150U | 0.462
53 | A111C A120C A145G C150G | 0.0633
54 | A111C A120C A145G C150A | 0.0979
55 | A111C A120G A145G C169A U176A | 0.0264
56 | A111C A120G A145G C169A U176C | 0.0401
57 | A111C A120G A145G C169A U176G | 0.00458
58 | A111C A120C C150U C169A U176G | 0.00561
59 | A111C A120C C150U C169A U176C | 0.0142
60 | A111C A120C C150U C169A U176A | 0.0172
61 | A111C A120C A145G C150U C169U U176C | 0.0438
62 | A111C A120C A145G C150U C169U U176A | 0.0283
63 | A111C A120C A145G C150U C169U U176G | 0.00486

Row | Variant | reverse-splicing fitness
64 | A111C A120G A145C C150A C169U U176G | 0.00392
65 | A111C A120G A145C C150A C169U U176A | 0.0178
66 | A111C A120G A145C C150A C169U U176C | 0.00924
67 | A111C A120G A145C C169A U176A | 0.0154
68 | A111C A120G A145C C169A U176C | 0.0169
69 | A111C A120G A145C C169A U176G | 0.00362
70 | A111C A120G A145C C150G C169G U176G | 0.00434
71 | A111C A120G A145C C150G C169G U176A | 0.00954
72 | A111C A120G A145C C150G C169G U176C | 0.00609
73 | A111C A120C C169A U176C | 0.0161
74 | A111C A120C C169A U176A | 0.0152
75 | A111C A120C C169A U176G | 0.00631
76 | A111C A120C A145U C150G C169U U176C | 0.0173
77 | A111C A120C A145U C150G C169U U176A | 0.00997
78 | A111C A120C A145U C150G C169U U176G | 0.00656
79 | A111C A120C A145G C150U C169G U176C | 0.0158
80 | A111C A120C A145G C150U C169G U176G | 0.00574
81 | A111C A120C A145G C150U C169G U176A | 0.0118
82 | A111C A120C A145U C150A C169A U176G | 0.0061
83 | A111C A120C A145U C150A C169A U176C | 0.0085
84 | A111C A120C A145U C150A C169A U176A | 0.0108
